Where a chain is given by its changes, count along the chain named.
T1: FcγRIIa R type extracellular domain, His tag (human, UniProt P12318 34-217)
T1 construct: extracellular domain; also called FcgRIIaR
T1 sequence (looked up): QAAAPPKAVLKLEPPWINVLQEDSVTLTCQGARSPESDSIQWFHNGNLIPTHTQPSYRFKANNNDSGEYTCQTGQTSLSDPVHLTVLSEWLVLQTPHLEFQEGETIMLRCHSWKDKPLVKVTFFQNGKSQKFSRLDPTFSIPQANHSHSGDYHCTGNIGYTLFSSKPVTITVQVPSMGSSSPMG

T2: FcγRIIb extracellular domain, His tag (human, UniProt P31994 43-217)
T2 construct: extracellular domain; also called FcgRIIb
T2 sequence (looked up): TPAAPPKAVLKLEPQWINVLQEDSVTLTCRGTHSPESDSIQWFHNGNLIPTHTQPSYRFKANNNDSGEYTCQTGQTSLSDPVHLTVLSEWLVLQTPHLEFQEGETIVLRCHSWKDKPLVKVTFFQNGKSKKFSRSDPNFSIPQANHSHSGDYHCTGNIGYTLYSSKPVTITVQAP

T3: FcγRIIa H type extracellular domain, His tag (human, UniProt P12318 34-217)
T3 construct: extracellular domain; also called FcgRIIaH
T3 sequence (looked up): T1 sequence (looked up) with R134H

B1: IL6R-P728/IL6R-L (antibody, human IgG1, kappa)
heavy: QVQLQESGPGLVKPSETLSLTCAVSGHSISHDHAWSWVRQPPGEGLEWIGFISYSGITNYNPSLQGRVTISRDNSKNTLYLQMNSLRAEDTAVYYCARSLARTTAMDYWGEGTLVTVSSASTKGPSVFPLAPSSKSTSGGTAALGCLVKDYFPEPVTVSWNSGALTSGVHTFPAVLQSSGLYSLSSVVTVPSSSLGTQTYICNVNHKPSNTKVDKKVEPKSCDKTHTCPPCPAPELFGQDSVMLFPPKPKDTLMISRTPEVTCVVVDVSHEDPEVKFNWYVDGVEVHNAKTKPREEQENSTYRVVSVLTVLHQDWLNGKEYKCKVHNKALPAPIEKTISKAKGQPREPQVYTLPPSRDELTKNQVSLTCLVKGFYPSDIAVEWESNGQPENNYKTTPPVLDSDGSFFLYSKLTVDKSRWQQGNVFSCSVMHEALHNHYTQKSLSLSP
light: not shown
B2: IL6R-P690/IL6R-L (antibody, human IgG1, kappa)
heavy: B1 heavy with F237L, H326S, A332H
light: not shown
B3: IL6R-P727/IL6R-L (antibody, human IgG1, kappa)
heavy: B1 heavy with F237L, H270P, H326S, A332H
light: not shown
B4: IL6R-P732/IL6R-L (antibody, human IgG1, kappa)
heavy: B1 heavy with Q239G, H270P
light: not shown
B5: IL6R-P693/IL6R-L (antibody, human IgG1, kappa)
heavy: B1 heavy with F237L, Q239G, M243F, S300A, H326S
light: not shown
B6: IL6R-P731/IL6R-L (antibody, human IgG1, kappa)
heavy: B1 heavy with F237L, H270P
light: not shown
B7: IL6R-P689/IL6R-L (antibody, human IgG1, kappa)
heavy: B1 heavy with F237L, Q239G, H270P
light: not shown
B8: IL6R-P687/IL6R-L (antibody, human IgG1, kappa)
heavy: B1 heavy with F237L, Q239G, M243F, E298Y, S300A, H326N, A332H
light: not shown

What follows are binders tested against T4, FcγRIa extracellular domain, His tag (human, UniProt P12314 16-292) (assay: SPR, KD ratio).
T4 construct: whole entry named; also called FcgRIa
T4 sequence (P12314 16-292): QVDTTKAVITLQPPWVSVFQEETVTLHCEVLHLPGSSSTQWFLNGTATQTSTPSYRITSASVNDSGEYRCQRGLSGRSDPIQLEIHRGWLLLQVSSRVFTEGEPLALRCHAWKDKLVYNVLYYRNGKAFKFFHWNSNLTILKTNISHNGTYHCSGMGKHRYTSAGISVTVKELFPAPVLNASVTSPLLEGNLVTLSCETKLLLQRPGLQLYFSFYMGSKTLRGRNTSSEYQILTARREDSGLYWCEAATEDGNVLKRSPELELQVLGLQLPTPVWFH

Q: With B1 as the binder, how does the “Relative FcgRIa-binding Activity” value read?
A: The value was 0.0006 fold of IL6R-G1d/IL6R-L.

Q: Which “Relative FcgRIa-binding Activity” value does the source give for B2 here?
A: The value was 0.0011 fold of IL6R-G1d/IL6R-L.

Q: For B3, which “Relative FcgRIa-binding Activity” value is on record?
A: Its value is 0.0014 fold of IL6R-G1d/IL6R-L.

Q: For B4, which “Relative FcgRIa-binding Activity” value is on record?
A: Its value is 0.0005 fold of IL6R-G1d/IL6R-L.

Q: B5 was tested. Which “Relative FcgRIa-binding Activity” value did it give?
A: Its value is 0.0423 fold of IL6R-G1d/IL6R-L.

Q: Which “Relative FcgRIa-binding Activity” value does the source give for B6 here?
A: The value was 0.0049 fold of IL6R-G1d/IL6R-L.

Q: Which “Relative FcgRIa-binding Activity” value does the source give for B7 here?
A: The value was 0.0118 fold of IL6R-G1d/IL6R-L.

Q: Which “Relative FcgRIa-binding Activity” value does the source give for B8 here?
A: The value was 0.0471 fold of IL6R-G1d/IL6R-L.

What follows are binders tested against T1, FcγRIIa R type extracellular domain, … (assay: SPR, KD ratio).

Q: With B1 as the binder, how does the “Relative FcgRIIaR-binding Activity” value read?
A: Its value is 0.017 fold of IL6R-G1d/IL6R-L.

Q: With B2 as the binder, how does the “Relative FcgRIIaR-binding Activity” value read?
A: Its value is 0.017 fold of IL6R-G1d/IL6R-L.

Q: How did the “Relative FcgRIIaR-binding Activity” value turn out when B3 was run?
A: The value was 0.012 fold of IL6R-G1d/IL6R-L.

Q: Which “Relative FcgRIIaR-binding Activity” value does the source give for B4 here?
A: Its value is 0.017 fold of IL6R-G1d/IL6R-L.

Q: How did the “Relative FcgRIIaR-binding Activity” value turn out when B5 was run?
A: The value was 0.018 fold of IL6R-G1d/IL6R-L.

Q: How did the “Relative FcgRIIaR-binding Activity” value turn out when B6 was run?
A: The value was 0.012 fold of IL6R-G1d/IL6R-L.

Q: How did the “Relative FcgRIIaR-binding Activity” value turn out when B7 was run?
A: The value was 0.016 fold of IL6R-G1d/IL6R-L.

Q: With B8 as the binder, how does the “Relative FcgRIIaR-binding Activity” value read?
A: Its value is 0.02 fold of IL6R-G1d/IL6R-L.

Each binder was assayed against T5, FcγRIIIa V type extracellular domain, His tag (human, UniProt P08637 17-208) (assay: SPR, KD ratio).
T5 construct: extracellular domain; also called FcgRIIIaV
T5 sequence (P08637 17-208 F176V): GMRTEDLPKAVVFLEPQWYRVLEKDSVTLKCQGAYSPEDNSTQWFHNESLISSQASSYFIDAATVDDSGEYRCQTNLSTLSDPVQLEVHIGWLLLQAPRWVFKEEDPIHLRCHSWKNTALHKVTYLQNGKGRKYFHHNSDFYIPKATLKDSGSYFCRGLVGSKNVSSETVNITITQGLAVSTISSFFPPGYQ

Q: How did the “Relative FcgRIIIaV-binding Activity” value turn out when B1 was run?
A: Its value is 0.007 fold of IL6R-G1d/IL6R-L.

Q: With B2 as the binder, how does the “Relative FcgRIIIaV-binding Activity” value read?
A: Its value is 0.005 fold of IL6R-G1d/IL6R-L.

Q: For B3, which “Relative FcgRIIIaV-binding Activity” value is on record?
A: The value was 0.005 fold of IL6R-G1d/IL6R-L.

Q: Which “Relative FcgRIIIaV-binding Activity” value does the source give for B4 here?
A: Its value is 0.004 fold of IL6R-G1d/IL6R-L.

Q: Which “Relative FcgRIIIaV-binding Activity” value does the source give for B5 here?
A: The value was 0.008 fold of IL6R-G1d/IL6R-L.

Q: B6 was tested. Which “Relative FcgRIIIaV-binding Activity” value did it give?
A: The value was 0.006 fold of IL6R-G1d/IL6R-L.

Q: B7 was tested. Which “Relative FcgRIIIaV-binding Activity” value did it give?
A: Its value is 0.007 fold of IL6R-G1d/IL6R-L.

Q: How did the “Relative FcgRIIIaV-binding Activity” value turn out when B8 was run?
A: Its value is 0.008 fold of IL6R-G1d/IL6R-L.

Each binder was assayed against T2, FcγRIIb extracellular domain, His tag (assay: SPR, KD ratio).

Q: With B1 as the binder, how does the “Relative FcgRIIb-binding Activity” value read?
A: Its value is 1.31 fold of IL6R-G1d/IL6R-L.

Q: Which “Relative FcgRIIb-binding Activity” value does the source give for B2 here?
A: Its value is 1.28 fold of IL6R-G1d/IL6R-L.

Q: How did the “Relative FcgRIIb-binding Activity” value turn out when B3 was run?
A: The value was 1.06 fold of IL6R-G1d/IL6R-L.

Q: How did the “Relative FcgRIIb-binding Activity” value turn out when B4 was run?
A: Its value is 1.75 fold of IL6R-G1d/IL6R-L.

Q: B5 was tested. Which “Relative FcgRIIb-binding Activity” value did it give?
A: Its value is 0.918 fold of IL6R-G1d/IL6R-L.

Q: How did the “Relative FcgRIIb-binding Activity” value turn out when B6 was run?
A: The value was 0.499 fold of IL6R-G1d/IL6R-L.

Q: For B7, which “Relative FcgRIIb-binding Activity” value is on record?
A: Its value is 1.09 fold of IL6R-G1d/IL6R-L.

Q: How did the “Relative FcgRIIb-binding Activity” value turn out when B8 was run?
A: The value was 1.01 fold of IL6R-G1d/IL6R-L.

Each binder was assayed against T3, FcγRIIa H type extracellular domain, … (assay: SPR, KD ratio).

Q: Which “Relative FcgRIIaH-binding Activity” value does the source give for B1 here?
A: The value was 0.012 fold of IL6R-G1d/IL6R-L.

Q: How did the “Relative FcgRIIaH-binding Activity” value turn out when B2 was run?
A: Its value is 0.007 fold of IL6R-G1d/IL6R-L.

Q: For B3, which “Relative FcgRIIaH-binding Activity” value is on record?
A: Its value is 0.007 fold of IL6R-G1d/IL6R-L.

Q: B4 was tested. Which “Relative FcgRIIaH-binding Activity” value did it give?
A: The value was 0.01 fold of IL6R-G1d/IL6R-L.

Q: Which “Relative FcgRIIaH-binding Activity” value does the source give for B5 here?
A: Its value is 0.006 fold of IL6R-G1d/IL6R-L.

Q: With B6 as the binder, how does the “Relative FcgRIIaH-binding Activity” value read?
A: The value was 0.007 fold of IL6R-G1d/IL6R-L.

Q: For B7, which “Relative FcgRIIaH-binding Activity” value is on record?
A: The value was 0.008 fold of IL6R-G1d/IL6R-L.

Q: Which “Relative FcgRIIaH-binding Activity” value does the source give for B8 here?
A: Its value is 0.007 fold of IL6R-G1d/IL6R-L.

What follows are binders tested against T1, FcγRIIa R type extracellular domain, … (assay: SPR, bound amount per captured antibody).

Q: Which “Relative FcgRIIaR-binding Activity” value does the source give for B1 here?
A: Its value is 11 % of IL6R-G1d/IL6R-L.

Q: With B2 as the binder, how does the “Relative FcgRIIaR-binding Activity” value read?
A: The value was 10.5 % of IL6R-G1d/IL6R-L.

Q: How did the “Relative FcgRIIaR-binding Activity” value turn out when B3 was run?
A: Its value is 8.3 % of IL6R-G1d/IL6R-L.

Q: For B4, which “Relative FcgRIIaR-binding Activity” value is on record?
A: The value was 11.9 % of IL6R-G1d/IL6R-L.

Q: How did the “Relative FcgRIIaR-binding Activity” value turn out when B5 was run?
A: The value was 11.4 % of IL6R-G1d/IL6R-L.

Q: B6 was tested. Which “Relative FcgRIIaR-binding Activity” value did it give?
A: The value was 8.1 % of IL6R-G1d/IL6R-L.

Q: How did the “Relative FcgRIIaR-binding Activity” value turn out when B7 was run?
A: Its value is 10.1 % of IL6R-G1d/IL6R-L.

Q: With B8 as the binder, how does the “Relative FcgRIIaR-binding Activity” value read?
A: Its value is 12.6 % of IL6R-G1d/IL6R-L.

These binders were tested against T2, FcγRIIb extracellular domain, His tag (assay: SPR, bound amount per captured antibody).

Q: With B1 as the binder, how does the “Relative FcgRIIb-binding Activity” value read?
A: Its value is 126 % of IL6R-G1d/IL6R-L.

Q: B2 was tested. Which “Relative FcgRIIb-binding Activity” value did it give?
A: Its value is 102 % of IL6R-G1d/IL6R-L.

Q: How did the “Relative FcgRIIb-binding Activity” value turn out when B3 was run?
A: The value was 108 % of IL6R-G1d/IL6R-L.

Q: B4 was tested. Which “Relative FcgRIIb-binding Activity” value did it give?
A: Its value is 165 % of IL6R-G1d/IL6R-L.

Q: B5 was tested. Which “Relative FcgRIIb-binding Activity” value did it give?
A: Its value is 87.9 % of IL6R-G1d/IL6R-L.

Q: B6 was tested. Which “Relative FcgRIIb-binding Activity” value did it give?
A: The value was 85.8 % of IL6R-G1d/IL6R-L.

Q: With B7 as the binder, how does the “Relative FcgRIIb-binding Activity” value read?
A: Its value is 103 % of IL6R-G1d/IL6R-L.

Q: How did the “Relative FcgRIIb-binding Activity” value turn out when B8 was run?
A: Its value is 100 % of IL6R-G1d/IL6R-L.
